Laboratory results: paper PMC10341545, “Structural and Biochemical Investigation of Selected Pathogenic Mutants of the Human Dihydrolipoamide Dehydrogenase” (International Journal of Molecular Sciences, 2023)

How the values were obtained:
[1] = target: the molecule itself; assay: crystal structure; sitting drop; 0.2 M MgCl2, PEG 3350, 0.1 M Bis-Tris pH 6.7; space group C 1 2 1; two monomers (the homodimer) in the asymmetric unit
[2] = target: the molecule itself; assay: SEC; calibrated size-exclusion chromatography (cSEC); HiPrep 16/60 Sephacryl S-200 HR, 4 °C, 150 mM ammonium acetate, pH 6.80, 0.5 mL/min; 40–780 μg protein loaded; dimer to monomers

Protein	binding result [1]	binding result [2]
I318T-hLADH (enzyme, human, UniProt P09622 36-509, looked up, Dihydrolipoamide dehydrogenase, human, pathogenic variant I318T; Clinically reported disease-causing variant; mutation verified by MS) ADQPIDADVTVIGSGPGGYVAAIKAAQLGFKTVCIEKNETLGGTCLNVGCIPSKALLNNSHYYHMAHGKDFASRGIEMSEVRLNLDKMMEQKSTAVKALTGGIAHLFKQNKVVHVNGYGKITGKNQVTATKADGGTQVIDTKNILIATGSEVTPFPGITIDEDTIVSSTGALSLKKVPEKMVVIGAGVIGVELGSVWQRLGADVTAVEFLGHVGGVGIDMEISKNFQRILQKQGFKFKLNTKVTGATKKSDGKIDVSIEAASGGKAEVITCDVLLVCIGRRPFTKNLGLEELGIELDPRGRIPVNTRFQTKIPNIYATGDVVAGPMLAHKAEDEGIICVEGMAGGAVHIDYNCVPSVIYTHPEVAWVGKSEEQLKEEGIEYKVGKFPFAANSRAKTNADTDGMVKILGQKSTDRVLGAHILGPGAGEMVNEAALALEYGASCEDIARVCHAHPTLSEAFREANLAASFGKSINF	binds	
K37E-hLADH (enzyme, human, UniProt P09622 36-509, looked up, Dihydrolipoamide dehydrogenase, human, pathogenic variant K37E; Clinically reported disease-causing variant) ADQPIDADVTVIGSGPGGYVAAIKAAQLGFKTVCIEENETLGGTCLNVGCIPSKALLNNSHYYHMAHGKDFASRGIEMSEVRLNLDKMMEQKSTAVKALTGGIAHLFKQNKVVHVNGYGKITGKNQVTATKADGGTQVIDTKNILIATGSEVTPFPGITIDEDTIVSSTGALSLKKVPEKMVVIGAGVIGVELGSVWQRLGADVTAVEFLGHVGGVGIDMEISKNFQRILQKQGFKFKLNTKVTGATKKSDGKIDVSIEAASGGKAEVITCDVLLVCIGRRPFTKNLGLEELGIELDPRGRIPVNTRFQTKIPNIYAIGDVVAGPMLAHKAEDEGIICVEGMAGGAVHIDYNCVPSVIYTHPEVAWVGKSEEQLKEEGIEYKVGKFPFAANSRAKTNADTDGMVKILGQKSTDRVLGAHILGPGAGEMVNEAALALEYGASCEDIARVCHAHPTLSEAFREANLAASFGKSINF		binds
I12T-hLADH (enzyme, human, UniProt P09622 36-509, looked up, Dihydrolipoamide dehydrogenase, human, pathogenic variant I12T; Also expressed with an N-terminal Twin-Strep-tag to increase the yield; source: very low-expressing, eluted with contaminating proteins) ADQPIDADVTVTGSGPGGYVAAIKAAQLGFKTVCIEKNETLGGTCLNVGCIPSKALLNNSHYYHMAHGKDFASRGIEMSEVRLNLDKMMEQKSTAVKALTGGIAHLFKQNKVVHVNGYGKITGKNQVTATKADGGTQVIDTKNILIATGSEVTPFPGITIDEDTIVSSTGALSLKKVPEKMVVIGAGVIGVELGSVWQRLGADVTAVEFLGHVGGVGIDMEISKNFQRILQKQGFKFKLNTKVTGATKKSDGKIDVSIEAASGGKAEVITCDVLLVCIGRRPFTKNLGLEELGIELDPRGRIPVNTRFQTKIPNIYAIGDVVAGPMLAHKAEDEGIICVEGMAGGAVHIDYNCVPSVIYTHPEVAWVGKSEEQLKEEGIEYKVGKFPFAANSRAKTNADTDGMVKILGQKSTDRVLGAHILGPGAGEMVNEAALALEYGASCEDIARVCHAHPTLSEAFREANLAASFGKSINF		binds
G194C-hLADH (enzyme, human, UniProt P09622 36-509, looked up, Dihydrolipoamide dehydrogenase, human, pathogenic variant G194C; Clinically reported disease-causing variant) ADQPIDADVTVIGSGPGGYVAAIKAAQLGFKTVCIEKNETLGGTCLNVGCIPSKALLNNSHYYHMAHGKDFASRGIEMSEVRLNLDKMMEQKSTAVKALTGGIAHLFKQNKVVHVNGYGKITGKNQVTATKADGGTQVIDTKNILIATGSEVTPFPGITIDEDTIVSSTGALSLKKVPEKMVVIGAGVIGVELCSVWQRLGADVTAVEFLGHVGGVGIDMEISKNFQRILQKQGFKFKLNTKVTGATKKSDGKIDVSIEAASGGKAEVITCDVLLVCIGRRPFTKNLGLEELGIELDPRGRIPVNTRFQTKIPNIYAIGDVVAGPMLAHKAEDEGIICVEGMAGGAVHIDYNCVPSVIYTHPEVAWVGKSEEQLKEEGIEYKVGKFPFAANSRAKTNADTDGMVKILGQKSTDRVLGAHILGPGAGEMVNEAALALEYGASCEDIARVCHAHPTLSEAFREANLAASFGKSINF		binds
R447G-hLADH (enzyme, human, UniProt P09622 36-509, looked up, Dihydrolipoamide dehydrogenase, human, pathogenic variant R447G; Clinically reported disease-causing variant) ADQPIDADVTVIGSGPGGYVAAIKAAQLGFKTVCIEKNETLGGTCLNVGCIPSKALLNNSHYYHMAHGKDFASRGIEMSEVRLNLDKMMEQKSTAVKALTGGIAHLFKQNKVVHVNGYGKITGKNQVTATKADGGTQVIDTKNILIATGSEVTPFPGITIDEDTIVSSTGALSLKKVPEKMVVIGAGVIGVELGSVWQRLGADVTAVEFLGHVGGVGIDMEISKNFQRILQKQGFKFKLNTKVTGATKKSDGKIDVSIEAASGGKAEVITCDVLLVCIGRRPFTKNLGLEELGIELDPRGRIPVNTRFQTKIPNIYAIGDVVAGPMLAHKAEDEGIICVEGMAGGAVHIDYNCVPSVIYTHPEVAWVGKSEEQLKEEGIEYKVGKFPFAANSRAKTNADTDGMVKILGQKSTDRVLGAHILGPGAGEMVNEAALALEYGASCEDIAGVCHAHPTLSEAFREANLAASFGKSINF		binds
G426E-hLADH (enzyme, human, UniProt P09622 36-509, looked up, Dihydrolipoamide dehydrogenase, human, pathogenic variant G426E; Clinically reported disease-causing variant) ADQPIDADVTVIGSGPGGYVAAIKAAQLGFKTVCIEKNETLGGTCLNVGCIPSKALLNNSHYYHMAHGKDFASRGIEMSEVRLNLDKMMEQKSTAVKALTGGIAHLFKQNKVVHVNGYGKITGKNQVTATKADGGTQVIDTKNILIATGSEVTPFPGITIDEDTIVSSTGALSLKKVPEKMVVIGAGVIGVELGSVWQRLGADVTAVEFLGHVGGVGIDMEISKNFQRILQKQGFKFKLNTKVTGATKKSDGKIDVSIEAASGGKAEVITCDVLLVCIGRRPFTKNLGLEELGIELDPRGRIPVNTRFQTKIPNIYAIGDVVAGPMLAHKAEDEGIICVEGMAGGAVHIDYNCVPSVIYTHPEVAWVGKSEEQLKEEGIEYKVGKFPFAANSRAKTNADTDGMVKILGQKSTDRVLGAHILGPGAEEMVNEAALALEYGASCEDIARVCHAHPTLSEAFREANLAASFGKSINF		binds
I358T-hLADH (enzyme, human, UniProt P09622 36-509, looked up, Dihydrolipoamide dehydrogenase, human, pathogenic variant I358T; Clinically reported disease-causing variant; mutation verified by MS) ADQPIDADVTVIGSGPGGYVAAIKAAQLGFKTVCIEKNETLGGTCLNVGCIPSKALLNNSHYYHMAHGKDFASRGIEMSEVRLNLDKMMEQKSTAVKALTGGIAHLFKQNKVVHVNGYGKITGKNQVTATKADGGTQVIDTKNILIATGSEVTPFPGITIDEDTIVSSTGALSLKKVPEKMVVIGAGVIGVELGSVWQRLGADVTAVEFLGHVGGVGIDMEISKNFQRILQKQGFKFKLNTKVTGATKKSDGKIDVSIEAASGGKAEVITCDVLLVCIGRRPFTKNLGLEELGIELDPRGRIPVNTRFQTKIPNIYAIGDVVAGPMLAHKAEDEGIICVEGMAGGAVHIDYNCVPSVTYTHPEVAWVGKSEEQLKEEGIEYKVGKFPFAANSRAKTNADTDGMVKILGQKSTDRVLGAHILGPGAGEMVNEAALALEYGASCEDIARVCHAHPTLSEAFREANLAASFGKSINF	binds	
I445M-hLADH (enzyme, human, UniProt P09622 36-509, looked up, Dihydrolipoamide dehydrogenase, human, pathogenic variant I445M; Clinically reported disease-causing variant) ADQPIDADVTVIGSGPGGYVAAIKAAQLGFKTVCIEKNETLGGTCLNVGCIPSKALLNNSHYYHMAHGKDFASRGIEMSEVRLNLDKMMEQKSTAVKALTGGIAHLFKQNKVVHVNGYGKITGKNQVTATKADGGTQVIDTKNILIATGSEVTPFPGITIDEDTIVSSTGALSLKKVPEKMVVIGAGVIGVELGSVWQRLGADVTAVEFLGHVGGVGIDMEISKNFQRILQKQGFKFKLNTKVTGATKKSDGKIDVSIEAASGGKAEVITCDVLLVCIGRRPFTKNLGLEELGIELDPRGRIPVNTRFQTKIPNIYAIGDVVAGPMLAHKAEDEGIICVEGMAGGAVHIDYNCVPSVIYTHPEVAWVGKSEEQLKEEGIEYKVGKFPFAANSRAKTNADTDGMVKILGQKSTDRVLGAHILGPGAGEMVNEAALALEYGASCEDMARVCHAHPTLSEAFREANLAASFGKSINF		binds
